IntAct's records for PubMed 15210731

B1: Myosin-1 (Saccharomyces cerevisiae), P08964 (parent)
chain: MTGGQSCSSNMIVWIPDEKEVFVKGELMSTDINKNKFTGQEEQIGIVHPLDSTEVSNLVQVRISDVFPVNPSTFDKVENMSELTHLNEPSVLYNLEKRYDCDLIYTYSGLFLVAINPYHNLNLYSEDHINLYHNKHNRLSKSRLDENSHEKLPPHIFAIAEEAYENLLSEGKDQSILVTGESGAGKTENTKKILQYLASITSGSPSNIAPVSGSSIVESFEMKILQSNPILESFGNAQTVRNNNSSRFGKFIKIEFNEHGMINGAHIEWYLLEKSRIVHQNSKERNYHIFYQLLSGLDDSELKNLRLKSRNVKDYKILSNSNQDIIPGINDVENFKELLSALNIIGFSKDQIRWIFQVVAIILLIGNIEFVSDRAEQASFKNDVSAICSNLGVDEKDFQTAILRPRSKAGKEWVSQSKNSQQAKFILNALSRNLYERLFGYIVDMINKNLDHGSATLNYIGLLDIAGFEIFENNSFEQLCINYTNEKLQQFFNNHMFVLEQSEYLKENIQWDYIDYGKDLQLTIDLIESKGPPTGVLPLLDEEAVLPKSTDESFYSKLISTWDQNSSKFKRSRLKNGFILKHYAGDVEYTVEGWLSKNKDPLNDNLLSLLSSSQNDIISKLFQPEGEKSSSAGVEANISNQEVKKSARTSTFKTTSSRHREQQITLLNQLASTHPHFVRCIIPNNVKKVKTFNRRLILDQLRCNGVLEGIRLAREGYPNRIAFQEFFQRYRILYPENSTTTTFSSKLKASTKQNCEFLLTSLQLDTKVYKIGNTKLFFKAGVLADLEKQKDVKLNNIMIKLTATIRGYTVRKEITYHLQKLKKTRVIGNTFRLYNRLVKEDPWFNLFIRIKPLLTSSNDMTRTKKFNEQINKLKNDLQEMESKKKFLEEKNQKTVNELENTQDLLNQEKENLRKNESLLNRVKTSSETLQKQFDDLVSEKDEISREKLEVAQNLEEAHQKIQGLQETIREREATLEKLHSKNNELIKQISDLNCDISKEQSSQSLIKESKLKLENEIKRLKDVINSKEEEIKSFNDKLSSSEEDLDIKLVTLEKNCNIAMSRLQSLVTENSDLRSKNENFKKEKAALNNQLKNKESELLKMKEKIDNHKKELATFSKQRDDAVSEHGKITAELKETRIQLTEYKSNYQKIKEEYSNFQRETKEQEQKKRNSLVESLNDSKIKELEARLSQEISLNQYLNKRISGNSVETNISSTRRSTSYSDDPLDKEDIIKKYYDLQLAFTEITRNLENEIEEKKNLISRLRFTETRLASSSFEDQKIKAQMKKLKKLIQDMDPSIPLDSILNEPLDNCPDKESDINKLMLEVDYLKRQLDIETRAHYDAENAISALHSKFRKIQGESSLSSSDIYKLKFEASEERVKSLEDKLKTMPLRDRTNLPVGDIIKNRDSISKYEEEIRYYKLENYKLQEILNESNGKLSQLTLDLRQSKSKEALLSEQLDRLQKDLESTERQKELLSSTIKQQKQQFENCMDDLQGNELRLREHIHALKQAEEDVKNMASIIEKLKTQNKQKEKLIWEREMERNDSDMQLQETLLELKRVQDVKKILSDDLAHLKERLSAVEDRSQYTDEINRLKEELNCSLKAETNLKKEFATLKYKLETSTNDSEAKISDLLKQLDHYTKVVEMLNNEKDAISLAEKELYQKYEALNTECESLKGKIVSLTKIKQELESDLNQKTDALQISNAALSSSTQKNKEITEKIKYLEETLQLQMEQNSRNGELVKTLQASCNGYKDKFDDEKQKNIDLYEENQTLQKLNTDLQLQLKNLHERLSDTTEKNAWLSKIHELENMVSLETDLKYEEMKKNKSLERAVEELQTKNSQQTDVIELANKNRSEFEEATLKYEAQISDLEKYISQQELEMKKSIRDNSSYRDKVQEMAQEIEFWKSRYESTMIGSKNIDSNNAQSKIFS
partner: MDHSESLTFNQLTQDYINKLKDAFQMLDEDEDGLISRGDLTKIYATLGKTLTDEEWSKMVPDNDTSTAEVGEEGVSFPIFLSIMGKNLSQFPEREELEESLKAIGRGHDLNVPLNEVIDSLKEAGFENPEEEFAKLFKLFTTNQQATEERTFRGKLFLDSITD
B2: Myosin light chain 1 (Saccharomyces cerevisiae), P53141 (parent)
chain: MSATRANKDIFTLFDKKGQGAIAKDSLGDYLRAIGYNPTNQLVQDIINADSSLRDASSLTLDQITGLIEVNEKELDATTKAKTEDFVKAFQVFDKESTGKVSVGDLRYMLTGLGEKLTDAEVDELLKGVEVDSNGEIDYKKFIEDVLRQ
B3: Myosin light chain 1 (Saccharomyces cerevisiae), P53141 (parent)
chain: B2 chain
partner: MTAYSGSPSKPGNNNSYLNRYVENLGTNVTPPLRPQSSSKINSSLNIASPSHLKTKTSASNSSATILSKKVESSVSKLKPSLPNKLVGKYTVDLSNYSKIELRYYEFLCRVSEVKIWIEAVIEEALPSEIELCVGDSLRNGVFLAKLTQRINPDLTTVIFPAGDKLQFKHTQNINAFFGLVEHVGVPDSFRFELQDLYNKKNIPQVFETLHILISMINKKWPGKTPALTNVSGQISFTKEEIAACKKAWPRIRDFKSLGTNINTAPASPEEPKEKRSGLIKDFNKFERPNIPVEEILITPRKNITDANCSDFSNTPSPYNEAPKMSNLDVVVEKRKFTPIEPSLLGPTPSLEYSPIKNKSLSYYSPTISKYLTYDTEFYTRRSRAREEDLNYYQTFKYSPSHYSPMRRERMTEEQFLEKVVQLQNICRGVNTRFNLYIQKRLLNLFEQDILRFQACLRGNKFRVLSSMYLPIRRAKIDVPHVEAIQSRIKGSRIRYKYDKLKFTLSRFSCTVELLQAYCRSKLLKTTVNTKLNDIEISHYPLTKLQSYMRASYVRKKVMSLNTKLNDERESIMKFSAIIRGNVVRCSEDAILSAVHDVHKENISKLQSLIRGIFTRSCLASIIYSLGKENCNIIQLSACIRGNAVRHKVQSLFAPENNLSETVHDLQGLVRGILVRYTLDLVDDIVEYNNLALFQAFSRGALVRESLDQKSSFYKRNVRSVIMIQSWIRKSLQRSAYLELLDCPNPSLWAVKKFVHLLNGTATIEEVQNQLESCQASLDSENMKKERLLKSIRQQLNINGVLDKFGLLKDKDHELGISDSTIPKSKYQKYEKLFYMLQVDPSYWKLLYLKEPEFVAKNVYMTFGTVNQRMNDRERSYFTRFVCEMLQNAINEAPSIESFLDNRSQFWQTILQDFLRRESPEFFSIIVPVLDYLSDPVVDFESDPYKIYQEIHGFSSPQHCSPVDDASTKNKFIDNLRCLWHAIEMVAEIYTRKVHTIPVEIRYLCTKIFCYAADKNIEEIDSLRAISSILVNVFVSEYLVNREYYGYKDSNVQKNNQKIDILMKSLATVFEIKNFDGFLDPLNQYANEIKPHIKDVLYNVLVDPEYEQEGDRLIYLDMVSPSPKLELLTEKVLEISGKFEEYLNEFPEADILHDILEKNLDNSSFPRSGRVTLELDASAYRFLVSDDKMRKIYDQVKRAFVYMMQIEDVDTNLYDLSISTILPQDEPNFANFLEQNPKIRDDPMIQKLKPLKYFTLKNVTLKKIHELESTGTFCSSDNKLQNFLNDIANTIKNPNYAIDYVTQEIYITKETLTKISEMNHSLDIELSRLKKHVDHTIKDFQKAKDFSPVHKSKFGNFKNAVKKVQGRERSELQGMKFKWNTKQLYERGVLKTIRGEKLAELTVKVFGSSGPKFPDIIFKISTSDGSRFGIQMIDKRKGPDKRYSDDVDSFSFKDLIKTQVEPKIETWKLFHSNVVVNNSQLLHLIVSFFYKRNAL

Variants of: B1
Conditions: with mlc2_yeast MLC2, Q06580

Variant	effect of a mutation on the interaction
R806A	with no effect

Variants of: B2
Conditions: with myo2_yeast MYO2, P19524
Sequence of myo2_yeast MYO2, P19524 (P19524 whole entry): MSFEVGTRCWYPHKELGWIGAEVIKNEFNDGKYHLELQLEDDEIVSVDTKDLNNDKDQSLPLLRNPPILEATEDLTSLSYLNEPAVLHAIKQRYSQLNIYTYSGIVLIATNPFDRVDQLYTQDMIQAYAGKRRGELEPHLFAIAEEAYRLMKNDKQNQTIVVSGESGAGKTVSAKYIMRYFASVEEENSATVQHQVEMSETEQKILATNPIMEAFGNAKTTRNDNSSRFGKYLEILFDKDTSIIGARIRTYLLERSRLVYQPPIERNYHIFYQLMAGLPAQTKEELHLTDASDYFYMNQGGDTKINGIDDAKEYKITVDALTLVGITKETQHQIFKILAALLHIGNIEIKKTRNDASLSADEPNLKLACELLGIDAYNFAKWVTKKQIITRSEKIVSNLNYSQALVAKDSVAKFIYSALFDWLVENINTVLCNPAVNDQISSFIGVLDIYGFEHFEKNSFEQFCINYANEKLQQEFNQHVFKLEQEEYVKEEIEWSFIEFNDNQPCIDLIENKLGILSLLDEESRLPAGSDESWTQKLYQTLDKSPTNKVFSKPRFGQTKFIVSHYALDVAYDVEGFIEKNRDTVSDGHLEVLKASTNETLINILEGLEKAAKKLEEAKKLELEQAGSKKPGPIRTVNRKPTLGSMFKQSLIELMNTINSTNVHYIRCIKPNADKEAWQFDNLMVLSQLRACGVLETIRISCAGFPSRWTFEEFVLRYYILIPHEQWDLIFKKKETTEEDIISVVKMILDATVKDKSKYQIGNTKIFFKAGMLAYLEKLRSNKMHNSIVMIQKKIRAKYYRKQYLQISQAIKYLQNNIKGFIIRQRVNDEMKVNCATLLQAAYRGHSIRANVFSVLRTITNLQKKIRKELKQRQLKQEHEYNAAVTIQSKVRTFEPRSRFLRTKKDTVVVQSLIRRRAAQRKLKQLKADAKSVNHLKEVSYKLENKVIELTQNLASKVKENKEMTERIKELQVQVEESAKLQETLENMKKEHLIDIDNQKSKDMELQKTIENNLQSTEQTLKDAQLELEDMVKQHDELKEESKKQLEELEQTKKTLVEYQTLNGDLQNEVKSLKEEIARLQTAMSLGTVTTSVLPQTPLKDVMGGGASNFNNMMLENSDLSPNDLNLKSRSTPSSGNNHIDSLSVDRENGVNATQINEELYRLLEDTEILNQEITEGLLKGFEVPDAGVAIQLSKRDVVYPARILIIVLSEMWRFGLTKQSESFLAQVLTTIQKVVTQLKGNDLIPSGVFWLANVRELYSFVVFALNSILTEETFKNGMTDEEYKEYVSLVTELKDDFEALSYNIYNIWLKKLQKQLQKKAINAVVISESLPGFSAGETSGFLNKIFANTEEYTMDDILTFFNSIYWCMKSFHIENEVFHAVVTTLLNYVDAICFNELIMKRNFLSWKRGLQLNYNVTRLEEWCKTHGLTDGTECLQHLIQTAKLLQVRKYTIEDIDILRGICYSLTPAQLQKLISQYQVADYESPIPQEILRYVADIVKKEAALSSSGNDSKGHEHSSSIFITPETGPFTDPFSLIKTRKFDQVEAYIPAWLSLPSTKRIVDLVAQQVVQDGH

Variant	effect of a mutation on the interaction
G114D	disrupting interaction strength
G135E	with no effect

Variants of: B2
Conditions: with myo1_yeast MYO1, P08964

Variant	effect of a mutation on the interaction
G114D	decreasing interaction strength
G135E	decreasing interaction strength

Variants of: B3
Conditions: with iqg1_yeast IQG1, Q12280

Variant	effect of a mutation on the interaction
G135E	with no effect
G114D	disrupting interaction strength
